In US5989823, “Homogeneous detection of a target through nucleic acid ligand-ligand beacon interaction” (NeXstar Pharmaceuticals, Inc.):

B1: TAQ nucleic acid ligand (ssDNA)
DNA: TGGCGGAGCGATCATCTCAGAGCATTCTTAGCGTTTTGTTCTTGTGTATGA

Assays:
[1] = biological target: T1, PDGF (platelet derived growth factor) (Homo sapiens, UniProt P01127 P01127:82-190); assay: competition; no change in beacon fluorescence; 100 nM aptamer, PBSM, 4 uM tRNA, 37 C; conditions: chain copies: 2
Procedure: Specificity of Nucleic Acid Ligand Interaction with Target in the Presence of Ligand Beacon In the previous examples, a concentration-dependent signal reduction was observed when the target was added. This should not be observed when the wrong target protein is added. This point is illustrated in FIG. 7, where TAQ-nucleic acid ligand (100 nM) was mixed with increasing concentrations of PDGF in PBSM buffer containing 4 μM tRNA at 37° C. for 10 min. Then 110 nM TAQ-ligand beacon was added, incubated for an additional 10 min at the same temperature and fluorescence was measured.

[2] = biological target: T1, PDGF (platelet derived growth factor); assay: competition; ligand beacon (SEQ ID NO:2) fluorescence decreases with PDGF; 100 nM aptamer, PBSM (1 mM MgCl2), 4 uM tRNA, 30 C; also in human plasma at 37 C; conditions: chain copies: 2
Procedure: The PDGF ligand beacon was used in an assay in which 100 nM PDGF nucleic acid ligand above was mixed with an increasing concentration of PDGF for 10 minutes at 30° C. […] in PBSM buffer containing 4 µM tRNA. Then, 100 nM PDGF ligand beacon was added and the mixture was incubated for 10 minutes at 30° C. A measurement of fluorescein emission at 530 nm was made for each concentration of PDGF using 488 nm monochromatic laser light for excitation in a 96 well format Vistra Fluorimager SI. […] This is the expected result, because as the concentration of PDGF increases, the concentration of PDGF nucleic acid ligand that is not bound to PDGF decreases. Thus, there is a smaller pool of PDGF nucleic acid ligand for the PDGF ligand beacon to hybridize to.

T1 sequence (P01127 82-190, one chain of several): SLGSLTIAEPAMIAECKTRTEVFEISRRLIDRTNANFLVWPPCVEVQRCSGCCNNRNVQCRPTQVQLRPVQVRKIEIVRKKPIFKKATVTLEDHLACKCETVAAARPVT

Binder	binding result [1]	binding result [2]
B1	no binding	–
TGGGAGGGCGCGTTCTTCGTGGTTACTTTTAGTCCCGT (ssDNA) [PDGF nucleic acid ligand]	–	binds
